By EC50 is commonly meant the concentration at which the effect is half-maximal. A lower EC50 goes with an effect from little substance. A word on the Kd: it is a measure of binding affinity in units of concentration. What is called koff is a measure of how fast the partners let go of each other. The kon is the rate constant with which the complex forms. As a reminder, the EC50 (read off the curve) is the concentration giving half of the maximal effect. A low value points to an effect from little substance.

In test [1] the target is T1, Human C-type lectin domain family 5 member A (CLEC5A), endogenous on human monocytes and M0 macrophages (human, UniProt Q9NY25 1-188).
T1 construct: Endogenous CLEC5A on primary human monocytes and monocyte-derived M0 macrophages; also called MDL-1; M0 macrophages (CLEC5A+) cells
T1 sequence: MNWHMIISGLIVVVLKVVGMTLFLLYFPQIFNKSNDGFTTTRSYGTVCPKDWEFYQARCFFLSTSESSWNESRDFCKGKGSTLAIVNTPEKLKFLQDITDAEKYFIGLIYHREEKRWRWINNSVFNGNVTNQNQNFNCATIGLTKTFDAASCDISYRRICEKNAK
Put plainly: flow cytometry on human M0 macrophages, anti-human IgG PE. On the technique in general: A flow cytometer gives signals particle by particle.

Test [2] deals with T2, recombinant human CLEC5A, His Tag (ACROBiosystems, Cat #: NC1-H52H4) (human, UniProt Q9NY25 28-188).
T2 construct: Analyte of the BLI assay; Its catalogue number differs from that of the ELISA antigen; also called human CLEC5A (BLI analyte)
T2 sequence: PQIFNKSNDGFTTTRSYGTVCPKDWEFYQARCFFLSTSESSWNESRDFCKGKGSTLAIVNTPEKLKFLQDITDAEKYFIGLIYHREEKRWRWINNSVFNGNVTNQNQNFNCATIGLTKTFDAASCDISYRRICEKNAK
Put plainly: BLI, antibody 10 ug/ml captured on anti-human IgG Fc probe, analyte hCLEC5a; table row hCLEC5a 6.25 nM; all four rows print the same value.

The target in test [3] is T3, mouse CLEC5A (R&D Systems, Cat #: 8438-CL-050) (mouse, UniProt Q9R007 26-190, limits assumed).
T3 construct: Bought protein; also called recombinant mouse CLEC5A protein
T3 sequence: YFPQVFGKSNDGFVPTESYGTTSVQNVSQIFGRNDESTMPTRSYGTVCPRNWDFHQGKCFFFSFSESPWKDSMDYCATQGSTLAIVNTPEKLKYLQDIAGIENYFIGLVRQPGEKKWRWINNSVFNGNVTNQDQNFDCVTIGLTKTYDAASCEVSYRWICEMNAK
Put plainly: ELISA, plate coated with mouse CLEC5A. (In general: ELISA stands for enzyme-linked immunosorbent assay.)

Test [4] has as its target T2, recombinant human CLEC5A, His Tag …. Put plainly: BLI, antibody 10 ug/ml captured on anti-human IgG Fc probe, analyte hCLEC5a; table row hCLEC5a 3.12 nM; all four rows print the same value. (In general: Biolayer interferometry detects binding as a change in optical thickness at a sensor tip.)
Test [5] has as its target T4, Human CLEC5A His Tag protein (ACROBiosystems, Cat #: CLA-H5243) (human, UniProt Q9NY25 28-188, limits assumed).
T4 construct: Bought protein with a His tag; also called recombinant human CLEC5A protein
T4 sequence: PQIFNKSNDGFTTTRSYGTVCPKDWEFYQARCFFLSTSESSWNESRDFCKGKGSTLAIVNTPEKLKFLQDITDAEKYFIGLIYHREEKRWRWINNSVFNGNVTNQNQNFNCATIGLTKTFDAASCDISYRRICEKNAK
The test is described as follows: ELISA, plate coated with human CLEC5A.

The target in test [6] is T1, Human C-type lectin domain family 5 …. Put plainly: flow cytometry on human M0 macrophages, anti-human IgG PE. The source holds these as a separate data set.
Test [7] addresses T4, Human CLEC5A His Tag protein …. The test is described as follows: ELISA, plate coated with human CLEC5A. The source holds these as a separate data set.
Test [8] deals with T1, Human C-type lectin domain family 5 …. The test is described as follows: flow cytometry on human M0 macrophages (CLEC5A+), anti-human IgG PE, MFI (PE).
The target in test [9] is T2, recombinant human CLEC5A, His Tag …. Put plainly: BLI, antibody 10 ug/ml captured on anti-human IgG Fc probe, analyte hCLEC5a; table row hCLEC5a 1.56 nM; all four rows print the same value.
Test [10] shares this target. The test is described as follows: BLI, antibody 10 ug/ml captured on anti-human IgG Fc probe, analyte hCLEC5a; table row hCLEC5a 0.78 nM; all four rows print the same value.

Read-outs that look alike come from different tables or passages of the source.

B1: 5C7, chimeric rabbit/human IgG1 anti-CLEC5A antibody (Fc-silenced) (antibody, V domains shown)
VH: QSLEESGGDLVKPGASLTLTCTASGFSFSRSSYMCWVRQAPGKGLEWIGCLSVGDGHTYYASWAKGRFTISKTSSTSVTLQMTRLTAADTATYFCARAPSYSGDGGHGYDLWGPGTLVTVSS
VL: AIVMTQTPSSKSVPVGDTVTINCQASESVDRNNRLAWFQQKPGQPPKLLIYTTSTLASGVPSRFKGSGSGTHFTLTISDVVPDDAATYYCAGYRGAHTDGDAFGGGTEVVVK
notes: also called ch5C7; 5C7 Fc-silenced
As to B1, the EC50 in [1] is 0.49 nM; in test [3], 0.194 nM; in test [5], 0.9 nM; in test [6], 3.93 nM; in test [7] it was 0.158 µg/mL. Further, the dissociation constant (Kd) in [2], in test [4], in [9] and in test [10] was 0.15 nM throughout. In addition, the koff in test [2], in [4], in test [9] and in [10] was 0.000189 s⁻¹ in each case. Also, the on-rate (kon) in test [2], in test [4], in test [9] and in [10] was 1.26e+06 M⁻¹ s⁻¹ in each case. Also, the “EC50 (read off the curve)” value in test [8] was around 0.8 nM.

(Values after patent US20260201033A1 (LTZ THERAPEUTICS, published 2026).)
